Where “and” joins values, the source holds several entries; their conditions need not be identical. Equal values may be shown once.
Tests used:
[1] = target: PEG Variants of SEQ ID NO 24 (PEGylated Cysteine variants of fibrin domain fusion form of SK)
[2] = target: T1, PEGylated SK L179C (SEQ ID NO 41)
T1 chain: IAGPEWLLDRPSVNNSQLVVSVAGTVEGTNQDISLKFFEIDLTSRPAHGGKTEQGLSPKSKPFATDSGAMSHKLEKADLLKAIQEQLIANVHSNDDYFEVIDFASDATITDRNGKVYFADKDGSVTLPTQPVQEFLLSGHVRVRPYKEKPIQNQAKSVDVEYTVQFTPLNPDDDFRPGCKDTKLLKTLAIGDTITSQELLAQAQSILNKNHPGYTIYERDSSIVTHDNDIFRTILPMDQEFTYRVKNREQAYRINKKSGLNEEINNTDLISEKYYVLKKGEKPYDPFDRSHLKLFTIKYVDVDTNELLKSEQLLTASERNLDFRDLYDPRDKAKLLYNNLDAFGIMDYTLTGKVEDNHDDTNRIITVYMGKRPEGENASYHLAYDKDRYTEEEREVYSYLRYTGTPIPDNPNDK

[3] = target: T2, native streptokinase nSK (1-414) ATCC 12449 (SEQ ID NO 1)
T2 chain: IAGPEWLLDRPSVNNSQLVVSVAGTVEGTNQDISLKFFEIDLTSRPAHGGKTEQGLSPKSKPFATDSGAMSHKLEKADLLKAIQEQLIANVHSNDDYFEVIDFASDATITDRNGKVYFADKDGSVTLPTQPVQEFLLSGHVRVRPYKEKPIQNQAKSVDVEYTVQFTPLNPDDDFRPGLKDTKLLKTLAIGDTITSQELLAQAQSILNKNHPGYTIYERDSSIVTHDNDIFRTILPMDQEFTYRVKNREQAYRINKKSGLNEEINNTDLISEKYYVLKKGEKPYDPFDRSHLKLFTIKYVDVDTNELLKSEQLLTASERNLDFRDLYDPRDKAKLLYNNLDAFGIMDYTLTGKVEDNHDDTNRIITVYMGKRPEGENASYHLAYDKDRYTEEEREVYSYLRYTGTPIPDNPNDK

[4] = target: T3, bi-pegylated NC 1-414 (SEQ ID NO 491), Cys at N - 1 and at C + 1 position in SK
T3 chain: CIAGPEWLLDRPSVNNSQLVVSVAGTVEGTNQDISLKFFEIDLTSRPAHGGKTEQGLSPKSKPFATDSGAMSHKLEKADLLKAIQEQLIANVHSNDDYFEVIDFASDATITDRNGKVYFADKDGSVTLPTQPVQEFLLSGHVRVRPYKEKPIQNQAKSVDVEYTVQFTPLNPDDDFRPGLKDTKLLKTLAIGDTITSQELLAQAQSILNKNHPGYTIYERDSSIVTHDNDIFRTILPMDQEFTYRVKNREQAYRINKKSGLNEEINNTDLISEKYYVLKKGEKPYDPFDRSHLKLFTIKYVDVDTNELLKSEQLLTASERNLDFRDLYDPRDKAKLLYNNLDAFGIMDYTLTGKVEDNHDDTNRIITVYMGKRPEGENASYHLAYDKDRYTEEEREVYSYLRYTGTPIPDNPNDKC

[5] = target: T4, PEGylated SK D95C (SEQ ID NO 30)
T4 chain: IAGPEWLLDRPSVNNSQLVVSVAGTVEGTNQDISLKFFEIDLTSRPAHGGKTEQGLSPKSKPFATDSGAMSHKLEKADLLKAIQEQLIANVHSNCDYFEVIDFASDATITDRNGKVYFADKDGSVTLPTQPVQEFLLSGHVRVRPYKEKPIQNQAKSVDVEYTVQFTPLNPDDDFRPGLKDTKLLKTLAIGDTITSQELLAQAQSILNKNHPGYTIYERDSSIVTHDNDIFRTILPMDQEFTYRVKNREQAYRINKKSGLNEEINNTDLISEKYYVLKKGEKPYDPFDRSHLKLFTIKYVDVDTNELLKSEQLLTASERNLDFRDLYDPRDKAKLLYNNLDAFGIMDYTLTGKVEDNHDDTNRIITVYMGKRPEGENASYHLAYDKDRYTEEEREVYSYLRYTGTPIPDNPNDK

[6] = target: T5, PEGylated SK D96C (SEQ ID NO 31)
T5 chain: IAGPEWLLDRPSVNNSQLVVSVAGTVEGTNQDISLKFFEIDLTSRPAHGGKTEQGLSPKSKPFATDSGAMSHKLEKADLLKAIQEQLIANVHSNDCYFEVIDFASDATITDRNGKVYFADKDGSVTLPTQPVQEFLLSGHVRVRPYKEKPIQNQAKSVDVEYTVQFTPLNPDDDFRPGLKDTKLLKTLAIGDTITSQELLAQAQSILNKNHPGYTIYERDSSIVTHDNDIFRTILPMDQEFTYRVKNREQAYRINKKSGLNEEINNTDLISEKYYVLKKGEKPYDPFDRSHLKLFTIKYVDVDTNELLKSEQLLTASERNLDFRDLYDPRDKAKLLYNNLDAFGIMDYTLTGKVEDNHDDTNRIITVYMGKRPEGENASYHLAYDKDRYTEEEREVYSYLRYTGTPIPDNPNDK

B1: human plasminogen (HPG) (protein)
chain: KVYLSECKTGNGKNYRGTMSKTKNGITCQKWSSTSPHRPRFSPATHPSEGLEENYCRNPDNDPQGPWCYTTDPEKRYDYCDILECEEECMHCSGENYDGKISKTMSGLECQAWDSQSPHAHGYIPSKFPNKNLKKNYCRNPDRELRPWCFTTDPNKRWELCDIPRCTTPPPSSGPTYQCLKGTGENYRGNVAVTVSGHTCQHWSAQTPHTHNRTPENFPCKNLDENYCRNPDGKRAPWCHTTNSQVRWEYCKIPSCDSSPVSTEQLAPTAPPELTPVVQDCYHGDGQSYRGTSSTTTTGKKCQSWSSMTPHRHQKTPENYPNAGLTMNYCRNPDADKGPWCFTTDPSVRWEYCNLKKCSGTEASVVAPPPVVLLPDVETPSEEDCMFGNGKGYRGKRATTVTGTPCQDWAAQEPHRHSIFTPETNPRAGLEKNYCRNPDGDVGGPWCYTTNPRKLYDYCDVPQCAAPSFDCGKPQVEPKKCPGRVVGGCVAHPHSWPWQVSLRTRFGMHFCGGTLISPEWVLTAAHCLEKSPRPSSYKVILGAHQEVNLEPHVQEIEVSRLFLEPTRKDIALLKLSSPAVITDKVIPACLPSPNYVVADRTECFITGWGETQGTFGAGLLKEAQLPVIENKVCNRYEFLNGRVQSTELCAGHLAGGTDSCQGDSGGPLVCFEKDKYILQGVTSWGLGCARPNKPGVYVRVSRFVTWIEGVMRNN
Km [1]: 0.48 µM | Km [2]: 0.5 µM | Km [3]: 0.4 µM and 0.45 µM | Km [4]: 0.42 µM | Km [5]: 0.5 µM | Km [6]: 0.5 µM

Source: patent publication US20120213763A1 (COUNCIL OF SCIENTIFIC AND INDUSTRIAL RESEARCH, published 2012)
